Test results as given in the MegaScale stability set (Tsuboyama et al. 2023).

B1: r4_43_TrROS_Hall (parent)
chain: DLVTIKVPLENLEEIKKAAEKAGFKIVSISYDKENKEVTIVIEKKK

Variants of: B1
Assay: folding stability dG (cDNA display proteolysis); higher = more stable
Conditions: PBS, room temperature

Folding stability dG [kcal/mol]: each site, then its substitutions
E13: M 3.68 | T 3.46 | N 3.6 | Y 3.77
A22: E 3.2 | C 3.79 | D 3.13 | F 3.67
K16: S 3.58 | R 3.37 | F 3.62 | C 3.47 | Y 4.02 | T 3.88 | E 3.29 | I 3.9 | A 3.75 | L 3.61 | W 3.8 | P 1.97 | N 3.35 | Q 3.57 | V 3.6 | D 2.66 | G 3.4 | M 3.58 | H 3.29
K21: F 4.43 | V 3.93 | E 2.94 | N 3.42 | Q 3.9 | D 3.16 | S 3.93 | L 3.57 | G 3.83 | M 4.03 | I 3.93 | A 3.79 | Y 4.25 | T 3.9 | H 3.78 | W 4.37 | C 3.87 | R 4.07 | P 2.74
E20: P 3.12 | Q 3.28 | Y 3.92 | G 3.43 | A 3.68 | H 3.6 | F 4.07 | K 3.62 | M 3.72 | R 3.72 | D 3.49 | V 3.56 | I 3.65 | T 3.27 | N 3.55 | W 3.99 | S 3.66 | L 3.96 | C 3.67
E14: H 4.06 | G 3.86 | P 3.95 | S 3.7 | C 4.03 | F 3.99 | L 3.53 | V 3.71 | A 3.78 | Y 3.75 | R 3.78 | K 3.43 | W 3.86 | T 3.76 | M 3.89 | Q 3.56 | N 3.83 | I 3.71 | D 3.68
